The results in this text go back to US20100203046A1 (Biogen, published 2010).

The target of assay [1] is T1, human FcγRIII (CD16), CD16a (F158), on CD16-transfected Jurkat cells (human, UniProt P08637 17-254).
T1 construct: whole, on cells
The assay is described as follows: CD16 bridging assay, transient.

Assay [2] concerns the target T2, human FcγRI (CD64) on IFNγ-activated U937 cells (human, UniProt P12314 16-374).
T2 construct: whole, on cells; also called FcγR1
The assay is described as follows: CD64 bridging assay, purified.

Assay [3] concerns the target T3, human C1q (Sigma C0660) (human, UniProt P02745 23-245; P02746 28-253; P02747 29-245).
T3 construct: Bought protein; also called complement protein C1q
The assay is described as follows: C1q ELISA on CD2, purified. As for the experimental part: (§1) The C1q binding assay was performed by coating 96 well Maxisorb ELISA plates (Nalge-Nunc Rochester, N.Y., USA) with 50 μl recombinant soluble human CD2 at 10 μg/ml overnight at 4° C. in PBS. The wells were aspirated and washed three times with wash buffer (PBS, 0.05% Tween 20) and blocked for >1 h with 200 μ/well of block/diluent buffer (0.1 M Na₂HPO₄, pH 7, 0.1 M NaCl, 0.05% Tween 20, 0.1% gelatin). The antibody to be tested was diluted in block/diluent buffer starting at 15 μg/ml with 3-fold dilutions. 50 μl were added per well, and the plates incubated for 2 h at room temperature. After aspirating and washing as above, 50 μl/well of 2 μg/ml of Sigma human C1q (C0660) diluted in block/diluent buffer was added and incubated for 1.5 h at room temperature. After aspirating and washing as above, 50 μl/well of chicken anti human C1q (Cedarlane laboratories CL2101AP), diluted 2,000-fold in block/diluent buffer, was added. After incubation for 1.5 h at room temperature, the wells were aspirated and washed as above. 50 μl/well of donkey F(ab′)₂ anti chicken IgY HRP conjugate (Jackson ImmunoResearch 703-036-155) diluted to 1:5,000 in block/diluent was then added, and the wells incubated for 1 h at room temperature. After aspirating and washing as above, 100 μl TMB substrate (420 μM TMB, 0.004% H₂O₂ in 0.1 M sodium acetate/citric acid buffer, pH 4.9) was added and incubated for 2 min before the reaction was stopped with 100 μl 2 N sulfuric acid. The absorbance was read at 450 nm with a Softmax P instrument, and Softmax software was used to determine the relative binding affinity (C value) with a 4-parameter fit.
For orientation: ELISA stands for enzyme-linked immunosorbent assay.

Assay [4] deals with T3, human C1q (Sigma C0660). In words: C1q ELISA on CD2, transient. As for the experimental part: as §1
In assay [5] the target is T1, human FcγRIII (CD16), CD16a (F158), on …. In words: CD16 bridging assay, transient. This is another data set of the same source.
Assay [6] shares this target. The assay is described as follows: CD16 bridging assay, transient. This is another data set of the same source.

Like-named read-outs stand apart in the source and are kept apart here.

T2 sequence (P12314 16-374): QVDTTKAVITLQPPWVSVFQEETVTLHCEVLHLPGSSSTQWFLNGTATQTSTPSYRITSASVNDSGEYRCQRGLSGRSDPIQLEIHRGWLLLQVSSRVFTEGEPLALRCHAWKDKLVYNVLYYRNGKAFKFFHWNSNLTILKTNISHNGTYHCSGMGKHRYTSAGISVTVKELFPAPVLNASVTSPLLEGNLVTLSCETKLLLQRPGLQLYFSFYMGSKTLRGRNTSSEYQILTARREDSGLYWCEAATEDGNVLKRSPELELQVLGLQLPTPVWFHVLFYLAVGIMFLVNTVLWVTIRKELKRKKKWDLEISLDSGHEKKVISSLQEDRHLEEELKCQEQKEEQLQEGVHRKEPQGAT
T1 sequence (P08637 17-254): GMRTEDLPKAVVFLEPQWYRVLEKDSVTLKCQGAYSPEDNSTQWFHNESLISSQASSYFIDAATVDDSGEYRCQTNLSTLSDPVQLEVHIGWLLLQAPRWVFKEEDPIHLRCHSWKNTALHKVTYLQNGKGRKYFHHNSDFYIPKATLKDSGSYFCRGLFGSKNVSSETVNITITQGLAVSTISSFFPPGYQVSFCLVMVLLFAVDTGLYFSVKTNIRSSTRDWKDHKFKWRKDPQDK

B1: chCB6-huIgG1 K334D (antibody, name in EU numbering)
heavy: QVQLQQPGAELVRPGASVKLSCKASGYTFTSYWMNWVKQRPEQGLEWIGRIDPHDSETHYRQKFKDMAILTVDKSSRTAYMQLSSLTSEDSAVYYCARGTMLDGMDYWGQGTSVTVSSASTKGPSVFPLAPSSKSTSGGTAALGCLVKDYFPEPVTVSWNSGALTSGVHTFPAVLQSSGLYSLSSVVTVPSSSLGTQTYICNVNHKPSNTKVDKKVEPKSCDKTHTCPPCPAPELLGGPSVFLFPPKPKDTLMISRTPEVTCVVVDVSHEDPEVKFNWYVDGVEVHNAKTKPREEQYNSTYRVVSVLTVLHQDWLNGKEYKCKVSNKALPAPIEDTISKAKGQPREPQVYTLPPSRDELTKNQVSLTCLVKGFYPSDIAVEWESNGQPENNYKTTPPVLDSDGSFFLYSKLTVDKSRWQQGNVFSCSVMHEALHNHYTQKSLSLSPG
light: QIVLTQSPAIMSASPGEKVTMTCRASSSVSHMHWYQQKSGTSPKRWIYDTSKLASGVPARFSGSGSGTSYSLTISSVEAEDAATYYCQQWSSNPLTFGAGTKLELKRTVAAPSVFIFPPSDEQLKSGTASVVCLLNNFYPREAKVQWKVDNALQSGNSQESVTEQDSKDSTYSLSSTLTLSKADYEKHKVYACEVTHQGLSSPVTKSFNRGEC
notes: copies: 2 + 2
Regarding B1, the binding result (in assay [1]; in assay [2]; with human C1q (Sigma C0660) [3]) was “binds” in each case.

B2: chCB6-huIgG1 D376H (antibody, name in EU numbering)
heavy: not shown
light: B1 light
notes: copies: 2 + 2
As to B2, the binding result with human C1q (Sigma C0660) [4] is “binds”. In addition, the “fold decrease in binding vs WT” value in assay [5] came to 6 fold.

B3: chCB6-huIgG1 I332D/A378F (antibody, name in EU numbering)
heavy: not shown
light: B1 light
notes: copies: 2 + 2
B3: in assay [6], the “fold increase in binding vs WT” value worked out at 5 fold.

B4: chCB6-huIgG1 I332D/A378W (antibody, name in EU numbering)
heavy: not shown
light: B1 light
notes: copies: 2 + 2
As for B4, the “fold increase in binding vs WT” value in assay [6] turned out to be 5 fold.

B5: chCB6-huIgG1 D265E (antibody, name in EU numbering)
heavy: not shown
light: B1 light
notes: copies: 2 + 2
Regarding B5, the binding result in assay [1] is “no binding”.

B6: chCB6-huIgG1 D376R (antibody, name in EU numbering)
heavy: not shown
light: B1 light
notes: copies: 2 + 2
Consider B6, for which, in the assay with human C1q (Sigma C0660) [4], the binding result is “binds”. The “fold decrease in binding vs WT” value in assay [5] is 9 fold.

B7: chCB6-huIgG1 K334V (antibody, name in EU numbering)
heavy: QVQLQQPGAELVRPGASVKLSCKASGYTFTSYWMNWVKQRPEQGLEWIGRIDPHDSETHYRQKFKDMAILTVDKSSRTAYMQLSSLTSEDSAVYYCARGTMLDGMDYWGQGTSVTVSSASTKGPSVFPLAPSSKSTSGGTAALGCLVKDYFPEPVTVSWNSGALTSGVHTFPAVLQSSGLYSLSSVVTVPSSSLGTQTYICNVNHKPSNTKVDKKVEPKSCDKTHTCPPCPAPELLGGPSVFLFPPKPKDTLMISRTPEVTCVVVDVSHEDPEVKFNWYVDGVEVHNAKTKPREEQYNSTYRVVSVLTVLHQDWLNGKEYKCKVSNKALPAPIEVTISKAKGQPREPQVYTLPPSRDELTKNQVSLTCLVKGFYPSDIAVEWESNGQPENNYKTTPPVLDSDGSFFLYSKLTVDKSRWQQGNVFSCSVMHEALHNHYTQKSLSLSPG
light: B1 light
notes: copies: 2 + 2
Regarding B7, in assay [1], the “fold increase in binding vs WT” value is 3 fold. Moreover, the binding result (in assay [2]; with human C1q (Sigma C0660) [3]) was “binds” each time.

B8: chCB6-huIgG1 K334Q (antibody, name in EU numbering)
heavy: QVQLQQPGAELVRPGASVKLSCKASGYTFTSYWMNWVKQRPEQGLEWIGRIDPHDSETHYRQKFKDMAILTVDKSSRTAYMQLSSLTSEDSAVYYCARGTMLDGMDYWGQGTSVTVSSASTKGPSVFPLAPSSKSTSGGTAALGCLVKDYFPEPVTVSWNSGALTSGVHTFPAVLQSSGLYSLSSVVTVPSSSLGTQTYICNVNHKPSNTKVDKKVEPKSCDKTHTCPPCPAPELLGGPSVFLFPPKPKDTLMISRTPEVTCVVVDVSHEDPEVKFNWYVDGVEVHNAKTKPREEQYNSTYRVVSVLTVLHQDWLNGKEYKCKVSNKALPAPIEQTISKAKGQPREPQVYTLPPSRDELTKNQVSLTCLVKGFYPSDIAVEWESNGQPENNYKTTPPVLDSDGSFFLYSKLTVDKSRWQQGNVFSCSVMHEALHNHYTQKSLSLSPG
light: B1 light
notes: copies: 2 + 2
With B8, the binding result (in assay [1]; in assay [2]; in the assay with human C1q (Sigma C0660) [3]) was “binds” each time.

B9: chCB6-huIgG1 F241H (antibody, name in EU numbering)
heavy: not shown
light: B1 light
notes: copies: 2 + 2
For the molecule B9, the “fold decrease in binding vs WT” value in assay [1] was found to be 9 fold.

B10: chCB6-huIgG1 I332D/A378K (antibody, name in EU numbering)
heavy: not shown
light: B1 light
notes: copies: 2 + 2
For the molecule B10, the binding result in assay [6] is “binds”.

B11: chCB6-huIgG1 Y296F (antibody, name in EU numbering)
heavy: not shown
light: B1 light
notes: copies: 2 + 2
With B11, in assay [1], the “fold decrease in binding vs WT” value was found to be 2 fold.

B12: chCB6-huIgG1 L251G (antibody, name in EU numbering)
heavy: not shown
light: B1 light
notes: copies: 2 + 2
B12: the “fold increase in binding vs WT” value with human C1q (Sigma C0660) [4] stood at 3 fold. Moreover, the binding result in assay [5] is on record as “no binding”.

B13: chCB6-huIgG1 L251A (antibody, name in EU numbering)
heavy: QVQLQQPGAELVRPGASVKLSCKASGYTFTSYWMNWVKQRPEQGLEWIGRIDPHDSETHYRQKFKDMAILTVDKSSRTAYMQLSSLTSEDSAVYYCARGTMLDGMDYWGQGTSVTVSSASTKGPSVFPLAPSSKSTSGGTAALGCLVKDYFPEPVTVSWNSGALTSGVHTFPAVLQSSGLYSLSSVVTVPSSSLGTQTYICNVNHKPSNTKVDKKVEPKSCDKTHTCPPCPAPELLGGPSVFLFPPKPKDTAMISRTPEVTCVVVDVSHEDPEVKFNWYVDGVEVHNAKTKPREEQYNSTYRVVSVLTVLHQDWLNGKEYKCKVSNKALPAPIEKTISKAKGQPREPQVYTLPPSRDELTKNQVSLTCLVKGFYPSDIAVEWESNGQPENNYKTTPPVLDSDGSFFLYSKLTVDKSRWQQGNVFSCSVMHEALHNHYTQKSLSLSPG
light: B1 light
notes: copies: 2 + 2
In the case of B13, the “fold increase in binding vs WT” value was determined as 3 fold with human C1q (Sigma C0660) [4] and 2 fold in the assay with human C1q (Sigma C0660) [3]. Further, the binding result in assay [5] is given as “binds”.

B14: chCB6-huIgG1 H435A (antibody, name in EU numbering)
heavy: not shown
light: B1 light
notes: copies: 2 + 2
Regarding B14, in the assay with human C1q (Sigma C0660) [4], the binding result was “binds”. For the same molecule, the “fold decrease in binding vs WT” value in assay [5] turned out to be 4 fold.

B15: chCB6-huIgG1 K326Q (antibody, name in EU numbering)
heavy: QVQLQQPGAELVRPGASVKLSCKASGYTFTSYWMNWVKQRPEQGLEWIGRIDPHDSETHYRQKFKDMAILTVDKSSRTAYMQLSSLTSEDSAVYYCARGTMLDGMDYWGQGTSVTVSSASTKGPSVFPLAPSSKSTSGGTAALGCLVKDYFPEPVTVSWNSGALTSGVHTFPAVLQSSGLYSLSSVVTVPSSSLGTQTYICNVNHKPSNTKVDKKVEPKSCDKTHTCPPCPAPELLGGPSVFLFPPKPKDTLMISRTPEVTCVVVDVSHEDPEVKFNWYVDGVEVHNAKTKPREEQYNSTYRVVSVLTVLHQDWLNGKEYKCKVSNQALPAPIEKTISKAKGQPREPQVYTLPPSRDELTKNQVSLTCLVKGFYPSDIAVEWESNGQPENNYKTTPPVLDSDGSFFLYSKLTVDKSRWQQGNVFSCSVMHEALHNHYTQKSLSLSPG
light: B1 light
notes: copies: 2 + 2
For the molecule B15, the binding result (in assay [1]; in assay [2]; with human C1q (Sigma C0660) [3]) was “binds” throughout.

B16: chCB6-huIgG1 L234D (antibody, name in EU numbering)
heavy: not shown
light: B1 light
notes: copies: 2 + 2
Turning to B16, the “fold decrease in binding vs WT” value in assay [1] came to 4 fold.

B17: chCB6-huIgG1 K326E (antibody, name in EU numbering)
heavy: not shown
light: B1 light
notes: copies: 2 + 2
With B17, the binding result in assay [1] is reported as “binds”.

B18: chCB6-huIgG1 D270E (antibody, name in EU numbering)
heavy: not shown
light: B1 light
notes: copies: 2 + 2
In the case of B18, the binding result in assay [1] is listed as “binds”.

B19: chCB6-huIgG1 H435S (antibody, name in EU numbering)
heavy: not shown
light: B1 light
notes: copies: 2 + 2
Take B19: in the assay with human C1q (Sigma C0660) [4], the “fold increase in binding vs WT” value stood at 4 fold. The “fold decrease in binding vs WT” value in assay [5] turned out to be 5 fold.

B20: chCB6-huIgG1 A378Q (antibody, name in EU numbering)
heavy: not shown
light: B1 light
notes: copies: 2 + 2
In the case of B20, the binding result (with human C1q (Sigma C0660) [4]; in assay [5]) was “binds” throughout.

B21: chCB6-huIgG1 K334R (antibody, name in EU numbering)
heavy: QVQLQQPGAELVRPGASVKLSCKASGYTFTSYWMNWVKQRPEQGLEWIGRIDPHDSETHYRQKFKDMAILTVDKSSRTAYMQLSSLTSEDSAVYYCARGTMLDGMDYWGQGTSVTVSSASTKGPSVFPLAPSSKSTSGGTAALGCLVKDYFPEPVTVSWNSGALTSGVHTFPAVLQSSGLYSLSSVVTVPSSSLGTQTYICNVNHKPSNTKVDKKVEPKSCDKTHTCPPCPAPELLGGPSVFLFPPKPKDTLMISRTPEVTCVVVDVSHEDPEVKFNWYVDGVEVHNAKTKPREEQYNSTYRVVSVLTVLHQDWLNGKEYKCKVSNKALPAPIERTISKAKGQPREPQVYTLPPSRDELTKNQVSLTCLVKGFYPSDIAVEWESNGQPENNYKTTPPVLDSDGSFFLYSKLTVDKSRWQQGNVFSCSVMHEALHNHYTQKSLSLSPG
light: B1 light
notes: copies: 2 + 2
As to B21, the binding result in assay [1] is given as “binds”. Moreover, in assay [2], the “fold decrease in binding vs WT” value was found to be 5 fold. Moreover, in the assay with human C1q (Sigma C0660) [3], the “fold increase in binding vs WT” value worked out at 4 fold.

B22: chCB6-huIgG1 E294A (antibody, name in EU numbering)
heavy: not shown
light: B1 light
notes: copies: 2 + 2
Take B22: in the assay with human C1q (Sigma C0660) [3], the “fold decrease in binding vs WT” value worked out at 3 fold.

B23: chCB6-huIgG1 K338M (antibody, name in EU numbering)
heavy: not shown
light: B1 light
notes: copies: 2 + 2
For B23, the “fold decrease in binding vs WT” value in assay [1] was 6 fold.

B24: chCB6-huIgG1 E293D (antibody, name in EU numbering)
heavy: not shown
light: B1 light
notes: copies: 2 + 2
As to B24, the “fold decrease in binding vs WT” value in assay [1] was 4 fold.

B25: chCB6-huIgG1 E333D (antibody, name in EU numbering)
heavy: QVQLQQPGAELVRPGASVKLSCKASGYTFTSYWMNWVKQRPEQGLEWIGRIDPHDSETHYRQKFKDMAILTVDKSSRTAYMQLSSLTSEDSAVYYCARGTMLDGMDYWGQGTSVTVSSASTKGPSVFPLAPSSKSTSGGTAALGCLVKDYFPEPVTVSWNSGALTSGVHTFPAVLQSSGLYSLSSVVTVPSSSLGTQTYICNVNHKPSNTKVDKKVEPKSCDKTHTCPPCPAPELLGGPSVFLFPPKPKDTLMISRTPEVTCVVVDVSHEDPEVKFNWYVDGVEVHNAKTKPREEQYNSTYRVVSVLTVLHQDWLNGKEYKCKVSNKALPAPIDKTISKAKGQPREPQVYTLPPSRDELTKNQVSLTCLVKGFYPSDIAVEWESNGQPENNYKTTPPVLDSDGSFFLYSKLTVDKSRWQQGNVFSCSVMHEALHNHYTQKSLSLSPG
light: B1 light
notes: copies: 2 + 2
On to B25, for which the binding result in assay [1] and in assay [2] was “binds” throughout. Moreover, the “fold decrease in binding vs WT” value with human C1q (Sigma C0660) [3] came out at 2 fold.

B26: chCB6-huIgG1 K326N (antibody, name in EU numbering)
heavy: not shown
light: B1 light
notes: copies: 2 + 2
As for B26, the binding result in assay [1] is given as “binds”.

B27: chCB6-huIgG1 K334E (antibody, name in EU numbering)
heavy: not shown
light: B1 light
notes: copies: 2 + 2
Turning to B27, the binding result (in assay [1]; in assay [2]; with human C1q (Sigma C0660) [3]) was “binds” in each case.

B28: chCB6-huIgG1 A378K (antibody, name in EU numbering)
heavy: not shown
light: B1 light
notes: copies: 2 + 2
Turning to B28, the “fold increase in binding vs WT” value in the assay with human C1q (Sigma C0660) [4] came out at 4 fold. Besides, in assay [5], the binding result was “binds”.

B29: chCB6-huIgG1 Y296S (antibody, name in EU numbering)
heavy: not shown
light: B1 light
notes: copies: 2 + 2
As to B29, the entries for the “fold decrease in binding vs WT” value with human C1q (Sigma C0660) [4] and with human C1q (Sigma C0660) [3] were 4 fold and 5 fold, respectively.

B30: chCB6-huIgG1 H435G (antibody, name in EU numbering)
heavy: not shown
light: B1 light
notes: copies: 2 + 2
For B30, the “fold increase in binding vs WT” value with human C1q (Sigma C0660) [4] was found to be 4 fold. In addition, the “fold decrease in binding vs WT” value in assay [5] stood at 4 fold.

B31: chCB6-huIgG1 A378H (antibody, name in EU numbering)
heavy: not shown
light: B1 light
notes: copies: 2 + 2
For B31, in the assay with human C1q (Sigma C0660) [4], the binding result is recorded as “binds”. The “fold decrease in binding vs WT” value in assay [5] is 6 fold.

B32: chCB6-huIgG1 K334N (antibody, name in EU numbering)
heavy: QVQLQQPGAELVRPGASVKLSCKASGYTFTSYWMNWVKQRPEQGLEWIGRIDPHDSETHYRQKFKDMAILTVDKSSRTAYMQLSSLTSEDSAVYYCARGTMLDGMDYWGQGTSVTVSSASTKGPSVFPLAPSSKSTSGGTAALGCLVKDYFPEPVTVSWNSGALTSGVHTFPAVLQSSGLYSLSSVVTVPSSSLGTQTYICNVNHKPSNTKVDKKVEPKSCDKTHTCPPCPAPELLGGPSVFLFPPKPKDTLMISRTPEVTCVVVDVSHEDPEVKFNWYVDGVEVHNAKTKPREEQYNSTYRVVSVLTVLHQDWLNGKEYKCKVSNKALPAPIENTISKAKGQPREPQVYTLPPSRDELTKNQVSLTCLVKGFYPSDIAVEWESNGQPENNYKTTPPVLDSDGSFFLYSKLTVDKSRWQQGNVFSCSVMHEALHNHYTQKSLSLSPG
light: B1 light
notes: copies: 2 + 2
On to B32, for which the binding result (in assay [1]; in assay [2]; with human C1q (Sigma C0660) [3]) was “binds” in each case.

B33: chCB6-huIgG1 A378R (antibody, name in EU numbering)
heavy: not shown
light: B1 light
notes: copies: 2 + 2
On to B33, for which the binding result (in the assay with human C1q (Sigma C0660) [4]; in assay [5]) was “binds” each time.

B34: chCB6-huIgG1 L251S (antibody, name in EU numbering)
heavy: not shown
light: B1 light
notes: copies: 2 + 2
With B34, the binding result (in the assay with human C1q (Sigma C0660) [4]; in assay [5]) was “binds” in each case.

B35: chCB6-huIgG1 K326D (antibody, name in EU numbering)
heavy: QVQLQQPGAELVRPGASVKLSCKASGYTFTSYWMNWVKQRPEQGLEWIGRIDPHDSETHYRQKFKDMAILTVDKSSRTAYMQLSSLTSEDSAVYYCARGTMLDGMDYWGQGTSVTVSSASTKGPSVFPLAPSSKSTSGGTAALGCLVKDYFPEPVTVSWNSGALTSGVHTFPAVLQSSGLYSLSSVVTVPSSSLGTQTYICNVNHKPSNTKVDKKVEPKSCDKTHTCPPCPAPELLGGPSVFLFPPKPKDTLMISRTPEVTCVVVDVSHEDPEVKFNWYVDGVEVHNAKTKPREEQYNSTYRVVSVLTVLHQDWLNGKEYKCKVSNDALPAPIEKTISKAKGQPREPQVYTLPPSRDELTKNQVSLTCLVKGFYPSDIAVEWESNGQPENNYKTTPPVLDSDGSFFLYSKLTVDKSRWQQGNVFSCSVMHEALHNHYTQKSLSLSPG
light: B1 light
notes: copies: 2 + 2
Take B35: the binding result in assay [1] and in assay [2] was “binds” in each case. In addition, in the assay with human C1q (Sigma C0660) [3], the “fold increase in binding vs WT” value was determined as 2 fold.
